# Assay results: patent US20020182666
# T1: recombinant human full-length TrpRS with C-terminal tag of six histidine residues
# T1 chain: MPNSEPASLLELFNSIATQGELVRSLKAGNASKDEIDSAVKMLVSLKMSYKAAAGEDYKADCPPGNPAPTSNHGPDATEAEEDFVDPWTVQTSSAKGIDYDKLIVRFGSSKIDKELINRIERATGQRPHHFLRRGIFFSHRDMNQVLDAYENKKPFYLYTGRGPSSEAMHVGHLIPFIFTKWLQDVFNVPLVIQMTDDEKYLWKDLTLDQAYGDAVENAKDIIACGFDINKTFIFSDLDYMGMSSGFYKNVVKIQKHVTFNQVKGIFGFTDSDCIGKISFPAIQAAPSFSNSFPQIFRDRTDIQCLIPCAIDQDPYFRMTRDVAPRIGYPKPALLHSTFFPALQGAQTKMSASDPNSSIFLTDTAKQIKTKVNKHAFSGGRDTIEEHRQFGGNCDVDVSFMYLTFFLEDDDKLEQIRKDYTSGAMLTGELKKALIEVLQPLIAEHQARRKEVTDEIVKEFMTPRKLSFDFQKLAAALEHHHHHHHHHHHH
# T2: recombinant human full-length TyrRS with C-terminal tag of six histidine residues
# T2 chain: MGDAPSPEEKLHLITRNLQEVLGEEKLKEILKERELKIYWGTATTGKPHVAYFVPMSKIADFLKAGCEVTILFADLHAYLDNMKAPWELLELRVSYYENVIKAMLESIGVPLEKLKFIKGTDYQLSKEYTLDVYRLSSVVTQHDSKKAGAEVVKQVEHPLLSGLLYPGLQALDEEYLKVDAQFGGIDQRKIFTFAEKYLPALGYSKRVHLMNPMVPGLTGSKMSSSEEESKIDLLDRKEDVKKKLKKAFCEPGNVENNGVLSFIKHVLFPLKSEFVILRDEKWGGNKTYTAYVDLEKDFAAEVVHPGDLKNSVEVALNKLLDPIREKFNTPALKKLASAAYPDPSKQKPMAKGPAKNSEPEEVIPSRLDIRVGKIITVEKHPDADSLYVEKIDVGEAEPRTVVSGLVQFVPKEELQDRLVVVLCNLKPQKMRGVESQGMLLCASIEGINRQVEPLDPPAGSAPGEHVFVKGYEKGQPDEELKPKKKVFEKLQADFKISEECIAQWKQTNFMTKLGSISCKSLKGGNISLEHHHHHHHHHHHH
# B1: PMN elastase (protein)
# chain: IVGGRRARPHAWPFMVSLQLRGGHFCGATLIAPNFVMSAAHCVANVNVRAVRVVLGAHNLSRREPTRQVFAVQRIFENGYDPVNLLNDIVILQLNGSATINANVQVAQLPAQGRRLGNGVQCLAMGWGLLGRNRGIASVLQELNVTVVTSLCRRSNVCTLVRGRQAGVCFGDSGSPLVCNGLIHGIASFVRGGCASGLYPDAFAPVAQFVNWIDSIIQ
# What was measured:
# [1] = target: T1, recombinant human full-length TrpRS …
# [2] = target: T2, recombinant human full-length TyrRS …
protein,measurement,setting,value
B1,cleavage of full-length TrpRS by PMN elastase (SDS-PAGE),[1],PMN elastase cleavage of the 54 kDa full-length TrpRS generated a major fragment of 47 kDa and a minor fragment of 44 kDa
same,"cleavage of full-length TyrRS by PMN elastase (SDS-PAGE, immunoblot)",[2],the addition of PMN elastase to full-length TyrRS generated a doublet of ~40 kD fragments and a ~24 kD fragment
